In assay [1] the target is T1, p300 (Homo sapiens, UniProt Q09472). Nature of the assay: fluorescence anisotropy direct binding to p300. Conditions: fluorescein-labelled conjugates. Details: made in house. As for the experimental part: The hybrids 2 and 3a–c were then tested in a previously described fluorescence anisotropy p300/HIF-1α competition and p300 binding assays respectively (Fig. 2a).[33]
Fig. 2 Biophysical screening of HIF-1α peptides and hybrids, HIF-1α794–826, 2 and 3a–c (a) fluorescence anisotropy (FA) competition data for inhibition of p300/FITC-HIF-1α C-TAD for HIF-1α794–826 and 2 (b) (FA) binding data for 3a–c to p300 (schematic structure shown below).
Binding assays and protein expression were carried out as previously reported. 2, 3
The helix 2-3 peptide and the helix 2-extended peptide were purchased from Proteogenix,
France and the sequences shown below.
(1 picture or pasted object on this page, not shown here)
(Fluorescence polarisation rises when a labelled molecule tumbles more slowly, as on binding a larger partner.)
Target sequence in this assay (Q09472 whole entry, species assumed): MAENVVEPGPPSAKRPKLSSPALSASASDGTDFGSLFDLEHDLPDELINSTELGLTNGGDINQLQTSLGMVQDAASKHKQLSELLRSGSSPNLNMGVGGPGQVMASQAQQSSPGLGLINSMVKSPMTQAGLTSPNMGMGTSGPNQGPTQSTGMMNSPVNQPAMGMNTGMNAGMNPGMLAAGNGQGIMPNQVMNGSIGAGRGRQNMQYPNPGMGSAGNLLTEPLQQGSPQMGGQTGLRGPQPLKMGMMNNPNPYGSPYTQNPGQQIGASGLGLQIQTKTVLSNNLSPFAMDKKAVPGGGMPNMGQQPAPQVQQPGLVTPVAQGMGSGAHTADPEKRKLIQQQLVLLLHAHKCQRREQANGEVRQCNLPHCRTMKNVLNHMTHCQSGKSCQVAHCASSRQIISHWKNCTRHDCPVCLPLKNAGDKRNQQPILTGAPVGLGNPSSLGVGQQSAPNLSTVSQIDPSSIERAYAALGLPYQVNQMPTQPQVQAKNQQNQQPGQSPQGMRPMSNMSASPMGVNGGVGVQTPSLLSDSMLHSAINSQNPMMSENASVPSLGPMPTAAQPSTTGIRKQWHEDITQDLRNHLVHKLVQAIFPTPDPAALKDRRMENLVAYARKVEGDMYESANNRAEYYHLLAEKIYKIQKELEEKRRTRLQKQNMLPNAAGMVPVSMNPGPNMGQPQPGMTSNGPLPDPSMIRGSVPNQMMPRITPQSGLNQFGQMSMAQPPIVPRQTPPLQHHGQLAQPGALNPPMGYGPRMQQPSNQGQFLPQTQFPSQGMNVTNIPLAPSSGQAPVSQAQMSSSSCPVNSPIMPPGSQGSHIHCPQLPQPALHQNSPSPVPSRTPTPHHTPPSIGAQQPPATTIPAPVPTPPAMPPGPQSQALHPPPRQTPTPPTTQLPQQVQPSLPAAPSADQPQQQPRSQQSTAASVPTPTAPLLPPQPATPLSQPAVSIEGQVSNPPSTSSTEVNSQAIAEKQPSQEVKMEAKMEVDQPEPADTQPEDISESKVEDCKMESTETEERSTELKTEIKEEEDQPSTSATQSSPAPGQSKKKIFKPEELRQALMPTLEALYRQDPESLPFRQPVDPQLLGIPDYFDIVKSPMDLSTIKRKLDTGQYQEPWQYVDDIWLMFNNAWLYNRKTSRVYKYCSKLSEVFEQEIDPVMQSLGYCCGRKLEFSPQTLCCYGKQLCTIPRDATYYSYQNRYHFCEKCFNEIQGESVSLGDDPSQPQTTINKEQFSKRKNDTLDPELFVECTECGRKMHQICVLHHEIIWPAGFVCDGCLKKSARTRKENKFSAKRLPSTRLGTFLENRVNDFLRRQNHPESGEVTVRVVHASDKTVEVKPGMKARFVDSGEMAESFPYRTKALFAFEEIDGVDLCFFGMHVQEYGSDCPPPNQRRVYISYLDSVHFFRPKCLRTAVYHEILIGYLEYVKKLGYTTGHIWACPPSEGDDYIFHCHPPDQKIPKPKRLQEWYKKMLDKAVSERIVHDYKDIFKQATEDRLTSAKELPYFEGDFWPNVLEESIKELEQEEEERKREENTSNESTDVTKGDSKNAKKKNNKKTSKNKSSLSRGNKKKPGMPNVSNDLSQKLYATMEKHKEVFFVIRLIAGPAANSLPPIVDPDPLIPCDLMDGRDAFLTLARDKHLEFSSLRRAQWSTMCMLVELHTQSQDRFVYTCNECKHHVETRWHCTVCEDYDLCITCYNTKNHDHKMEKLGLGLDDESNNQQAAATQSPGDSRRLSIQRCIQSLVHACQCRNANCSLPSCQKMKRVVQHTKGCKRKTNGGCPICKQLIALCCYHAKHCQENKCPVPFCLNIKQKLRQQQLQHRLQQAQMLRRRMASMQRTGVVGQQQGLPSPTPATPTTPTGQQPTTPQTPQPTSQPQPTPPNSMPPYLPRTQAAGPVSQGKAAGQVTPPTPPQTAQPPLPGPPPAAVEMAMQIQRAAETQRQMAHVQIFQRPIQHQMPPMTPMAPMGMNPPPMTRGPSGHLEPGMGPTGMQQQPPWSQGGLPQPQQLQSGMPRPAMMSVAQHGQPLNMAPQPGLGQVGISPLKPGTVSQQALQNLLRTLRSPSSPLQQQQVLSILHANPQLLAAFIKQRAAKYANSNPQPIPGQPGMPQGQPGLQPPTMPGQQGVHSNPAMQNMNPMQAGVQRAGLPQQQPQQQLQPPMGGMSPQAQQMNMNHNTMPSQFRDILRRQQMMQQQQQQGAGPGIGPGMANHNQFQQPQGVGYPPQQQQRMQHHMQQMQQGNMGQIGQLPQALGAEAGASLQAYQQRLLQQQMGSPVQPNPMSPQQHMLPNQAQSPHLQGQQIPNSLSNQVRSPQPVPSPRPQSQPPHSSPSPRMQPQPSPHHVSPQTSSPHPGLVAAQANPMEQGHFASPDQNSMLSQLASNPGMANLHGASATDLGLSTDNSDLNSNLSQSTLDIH

Assay [2] concerns the target T2, HIF-1α/p300 interaction (Homo sapiens, UniProt Q09472).
T2 construct: made in house
Details: method as in 2 sources, ref 33 = [33]; PMID 24782431; doi:10.1002/cbic.201400009; Burslem G. M. Kyle H. F. Breeze A. L. Edwards T. A. Nelson A. Warriner S. L. Wilson A. J. ChemBioChem 2014 15 1083 1087 24782431 10.1002/cbic.201400009 PMC4159589 ||| ref 32 = [32]; PMID 26135796; doi:10.1039/c5mb00284b; Kyle H. F. Wickson K. F. Stott J. Burslem G. M. Breeze A. L. Tiede C. Tomlinson D. C. Warriner S. L. Nelson A. Wilson A. J. Edwards T. A. Mol. BioSyst. 2015 11 2738 2749 26135796 10.1039/c5mb00284b. Conditions: fluorescence anisotropy competition; prior truncation studies; read-out: IC50, inhibition of the HIF-1α/p300 interaction by HIF-1α peptides; cited from earlier work.

Assay [3] deals with p53/hDM2 interaction. Nature of the assay: fluorescence anisotropy competition assay p53/hDM2. It counts as binding. The source says: At first the lower inhibitory potency of both HIF-1α794–826 and hybrid 2 in comparison to helix mimetic 1 (9.2(±0.9) μM) which we determined previously,[33] might seem counterintuitive. One explanation that might account for this observation is that there may be a non-specific component to PPI inhibition associated with the aromatic oligoamide helix mimetic 1 (supported in part by a non-unity Hill co-efficient for the curve fitting, a property not observed for 2). […] We therefore performed further biophysical analysis. Although we illustrated previously that inhibition of HIF-1α/p300 by 1 was specific to the scaffold and selective in comparison to the eIF4E/4G interaction,[33] we expanded the range of assays here. […] Thus, by adding native amino acid residues from the HIF-1α sequence to the core helix mimetic 1 in hybrid 2, the specificity and selectivity of binding towards target interactions was improved.
Fig. 3 Biophysical screening of helix mimetic 1 and hybrid 2 to profile selectivity; FA competition data for inhibition of p53/hDM2.

Assay [4] addresses T1, p300. Nature of the assay: fluorescence anisotropy competition. The settings on record: cited from earlier work.
Target sequence in this assay (Q09472 2-2414): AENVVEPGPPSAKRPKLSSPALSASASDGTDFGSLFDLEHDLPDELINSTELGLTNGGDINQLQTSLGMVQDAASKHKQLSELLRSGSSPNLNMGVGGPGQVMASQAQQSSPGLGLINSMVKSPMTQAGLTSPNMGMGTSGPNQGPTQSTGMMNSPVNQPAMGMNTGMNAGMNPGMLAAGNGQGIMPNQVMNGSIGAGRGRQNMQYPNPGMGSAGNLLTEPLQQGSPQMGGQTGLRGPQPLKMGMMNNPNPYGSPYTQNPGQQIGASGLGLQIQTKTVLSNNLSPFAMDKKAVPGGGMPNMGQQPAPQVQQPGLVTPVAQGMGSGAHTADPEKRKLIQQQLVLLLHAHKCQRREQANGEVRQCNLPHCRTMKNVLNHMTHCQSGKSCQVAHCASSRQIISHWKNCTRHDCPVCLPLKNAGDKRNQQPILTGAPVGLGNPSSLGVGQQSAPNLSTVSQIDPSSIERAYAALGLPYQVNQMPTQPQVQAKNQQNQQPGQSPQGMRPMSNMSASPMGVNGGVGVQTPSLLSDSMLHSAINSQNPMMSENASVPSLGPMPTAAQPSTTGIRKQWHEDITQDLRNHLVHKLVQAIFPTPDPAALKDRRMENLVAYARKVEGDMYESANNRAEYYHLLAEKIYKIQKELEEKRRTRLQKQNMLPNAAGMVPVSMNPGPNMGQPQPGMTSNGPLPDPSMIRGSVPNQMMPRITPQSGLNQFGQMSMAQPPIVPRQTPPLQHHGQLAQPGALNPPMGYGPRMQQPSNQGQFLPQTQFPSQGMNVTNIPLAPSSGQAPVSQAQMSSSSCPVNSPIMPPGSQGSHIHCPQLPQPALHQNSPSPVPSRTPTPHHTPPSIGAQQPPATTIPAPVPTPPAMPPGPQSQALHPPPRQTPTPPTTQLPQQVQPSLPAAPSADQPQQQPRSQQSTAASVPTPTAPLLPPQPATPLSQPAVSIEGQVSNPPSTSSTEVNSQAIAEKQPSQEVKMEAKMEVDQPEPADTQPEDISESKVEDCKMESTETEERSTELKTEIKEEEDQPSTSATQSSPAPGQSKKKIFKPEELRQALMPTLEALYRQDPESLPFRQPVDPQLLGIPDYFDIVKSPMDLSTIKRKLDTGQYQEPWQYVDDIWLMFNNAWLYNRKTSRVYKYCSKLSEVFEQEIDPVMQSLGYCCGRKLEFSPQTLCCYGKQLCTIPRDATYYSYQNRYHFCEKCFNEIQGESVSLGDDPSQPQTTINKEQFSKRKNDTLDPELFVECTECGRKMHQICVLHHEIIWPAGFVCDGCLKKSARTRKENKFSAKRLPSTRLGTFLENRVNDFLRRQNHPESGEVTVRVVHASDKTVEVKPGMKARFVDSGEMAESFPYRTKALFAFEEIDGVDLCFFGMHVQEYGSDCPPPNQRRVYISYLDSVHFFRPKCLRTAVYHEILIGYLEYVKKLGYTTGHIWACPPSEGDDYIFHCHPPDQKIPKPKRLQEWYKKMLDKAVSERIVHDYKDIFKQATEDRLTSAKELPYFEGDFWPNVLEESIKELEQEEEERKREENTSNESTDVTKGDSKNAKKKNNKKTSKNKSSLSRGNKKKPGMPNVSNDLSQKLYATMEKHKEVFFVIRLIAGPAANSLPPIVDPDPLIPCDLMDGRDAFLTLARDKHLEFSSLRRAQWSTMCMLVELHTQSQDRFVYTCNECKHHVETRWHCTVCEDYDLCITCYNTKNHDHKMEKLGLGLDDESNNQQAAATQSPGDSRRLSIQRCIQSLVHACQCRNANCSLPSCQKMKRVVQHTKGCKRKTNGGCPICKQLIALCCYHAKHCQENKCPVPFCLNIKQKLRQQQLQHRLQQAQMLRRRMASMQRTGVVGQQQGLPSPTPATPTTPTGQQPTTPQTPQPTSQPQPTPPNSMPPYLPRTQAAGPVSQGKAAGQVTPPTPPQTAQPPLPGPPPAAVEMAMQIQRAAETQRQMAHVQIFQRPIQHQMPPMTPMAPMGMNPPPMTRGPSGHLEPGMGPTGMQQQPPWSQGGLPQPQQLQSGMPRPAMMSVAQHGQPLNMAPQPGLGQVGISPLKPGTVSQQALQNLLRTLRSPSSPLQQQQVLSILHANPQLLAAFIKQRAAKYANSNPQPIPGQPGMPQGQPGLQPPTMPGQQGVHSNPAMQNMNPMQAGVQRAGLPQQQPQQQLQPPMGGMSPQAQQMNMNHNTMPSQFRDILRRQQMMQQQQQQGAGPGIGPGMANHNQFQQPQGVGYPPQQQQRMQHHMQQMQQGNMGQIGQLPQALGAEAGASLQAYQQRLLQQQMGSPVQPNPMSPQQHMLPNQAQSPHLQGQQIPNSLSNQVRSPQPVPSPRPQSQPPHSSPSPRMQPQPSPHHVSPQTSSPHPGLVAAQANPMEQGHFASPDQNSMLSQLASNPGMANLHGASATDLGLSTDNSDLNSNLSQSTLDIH
Assay [5] concerns the target T1, p300. The experiment in a line: fluorescence anisotropy. The settings on record: cited from earlier work.
Target sequence in this assay (Q09472 2-2414): as above
Assay [6] deals with T1, p300. Details: made in house. The settings on record: fluorescence anisotropy direct binding; cited from earlier work. The source says:
A requirement for optimal linker length is supported by the fact that as the length of the PEG linker in 3a–c increases, so does binding affinity. In spite of the weaker binding affinities observed for 3a–c, the weak binding for HIF794–804 (helix 2) and HIF816– ...
Target sequence in this assay (Q09472 whole entry, species assumed): as the sequence (Q09472 whole entry, species assumed) above

For assay [7], the target named is HIF-1α C-TAD 794-826 (Homo sapiens) (UniProt Q16665). The experiment in a line: fluorescence anisotropy. The settings on record: cited from earlier work.

Kd and IC50 data for eleven compounds are collected here from publication PMC4843846, “Towards “bionic” proteins: replacement of continuous sequences from HIF-1α with proteomimetics to create functional p300 binding HIF-1α mimics” (Chemical Communications (Cambridge, England), 2016).

Where two headings read alike, the source gives them in different places. Starred links: 1 amine or outer side, 2 acyl side, 3 side chain; linkers in the order of their positions; H or OH if unused. Non-standard residues stand in square brackets, D forms with d. Residues, ends and D or L forms follow the SMILES beside them. No end group written: not given here. *: point of attachment. PEG24 = NCCOCCOCCOCCOCCOCCOCCOCCOCCOCCOCCOCCOCCOCCOCCOCCOCCOCCOCCOCCOCCOCCOCCOCCOCCC(=O)O; FITC = O=C1OC2(c3ccc(O)cc3Oc3cc(O)ccc32)c2ccc(NC(=S)*)cc21; PEG12 = NCCOCCOCCOCCOCCOCCOCCOCCOCCOCCOCCOCCOCCC(=O)O; 4Abz(3-OiBu) = CC(C)COc1cc(C(=O)[*:2])ccc1N[*:1]; PEG8 = NCCOCCOCCOCCOCCOCCOCCOCCOCCC(=O)O; X1 = CC(C)Oc1cc(C(=O)[*:2])ccc1N[*:1]; Ahx = NCCCCCC(=O)O

T2 sequence (Q09472 330-420 limits assumed): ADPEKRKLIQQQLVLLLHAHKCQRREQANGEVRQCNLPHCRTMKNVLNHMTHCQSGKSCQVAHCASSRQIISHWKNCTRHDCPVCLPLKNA
Sequence of p300 (from UniProt Q09472) (Q09472 2-2414): as the sequence (Q09472 2-2414) above

Regarding `CC(C)C[C@H](NC(=O)[C@H](C)NC(=O)[C@H](CCCNC(=N)N)NC(=O)[C@H](CC(C)C)NC(=O)[C@H](CC(C)C)NC(=O)[C@H](CCC(=O)O)NC(=O)[C@H](CCC(=O)O)NC(=O)CCOCCOCCOCCOCCOCCOCCOCCOCCOCCOCCOCCOCCOCCOCCOCCOCCOCCOCCOCCOCCOCCOCCOCCOCCNC(=O)[C@H](C)NC(=O)[C@H](CC(N)=O)NC(=O)[C@@H](NC(=O)[C@H](CCC(=O)O)NC(=O)[C@H](CS)NC(=O)[C@H](CC(=O)O)NC(=O)[C@H](Cc1ccc(O)cc1)NC(=O)[C@H](CO)NC(=O)[C@@H](NC(=O)[C@H](CC(C)C)NC(=O)[C@H](CCC(N)=O)NC(=O)CCCCCNC(=S)Nc1ccc2c(c1)C(=O)OC21c2ccc(O)cc2Oc2cc(O)ccc21)[C@@H](C)O)C(C)C)C(=O)N[C@@H](CC(=O)O)C(=O)N[C@@H](CCC(N)=O)C(=O)N[C@H](C(=O)N[C@@H](CC(N)=O)C(N)=O)C(C)C` [3c] ({FITC-Ahx}-QLTSYDCEVNA[PEG24]EELLRALDQVN-NH2), in assay [1], the affinity, expressed as Kd, was 144 µM.

Turning to “Ac-QLTSYDCEVNAPIQGSRNLLQ-NH 2 (Ac-QLTSYDCEVNAPIQGSRNLLQ-NH2) [HIF-1α794–815, peptide comprising the same residues as the peptidic region of hybrid 2]”, in assay [2], the IC50 was above 500 µM.

The compound `CC[C@H](C)[C@H](NC(=O)[C@@H]1CCCN1C(=O)[C@H](C)NC(=O)[C@H](CC(N)=O)NC(=O)[C@@H](NC(=O)[C@H](CCC(=O)O)NC(=O)[C@H](CO)NC(=O)[C@H](Cc1ccc(O)cc1)NC(=O)[C@H](CO)NC(=O)[C@@H](NC(=O)[C@H](CC(C)C)NC(=O)[C@H](CCC(N)=O)NC(C)=O)[C@@H](C)O)C(C)C)C(=O)N[C@@H](CCC(N)=O)C(=O)N[C@@H](CO)C(=O)N[C@@H](CCCNC(=N)N)C(=O)N[C@@H](CC(N)=O)C(=O)N[C@@H](CC(C)C)C(=O)N[C@@H](CC(C)C)C(=O)N[C@@H](CCC(N)=O)C(=O)NCC(=O)NCC(=O)Nc1ccc(C(=O)Nc2ccc(C(=O)Nc3ccc(C(=O)NCC(=O)O)cc3OC(C)C)cc2OCC(C)C)cc1OCC(C)C` [compound 2] (Ac-QLTSYSEVNAPIQSRNLLQGG[4Abz(3-OiBu)][4Abz(3-OiBu)][X1]G-OH) yielded an IC50 in assay [3] above 100 µM.

For the compound “HIF-1α794-826 794-826 (from UniProt Q16665)”, in assay [4], the IC50 is 89 µM.

With “FITC-HIF-1α794-826 794-826 (from UniProt Q16665)”, in assay [5], the dissociation constant (Kd) (usually the equilibrium constant for the complex coming apart) is 6.74 µM.

In turn, `CC(C)C[C@H](NC(=O)[C@H](C)NC(=O)[C@H](CCCNC(=N)N)NC(=O)[C@H](CC(C)C)NC(=O)[C@H](CC(C)C)NC(=O)[C@H](CCC(=O)O)NC(=O)[C@H](CCC(=O)O)NC(=O)CCOCCOCCOCCOCCOCCOCCOCCOCCOCCOCCOCCOCCNC(=O)[C@H](C)NC(=O)[C@H](CC(N)=O)NC(=O)[C@@H](NC(=O)[C@H](CCC(=O)O)NC(=O)[C@H](CS)NC(=O)[C@H](CC(=O)O)NC(=O)[C@H](Cc1ccc(O)cc1)NC(=O)[C@H](CO)NC(=O)[C@@H](NC(=O)[C@H](CC(C)C)NC(=O)[C@H](CCC(N)=O)NC(=O)CCCCCNC(=S)Nc1ccc2c(c1)C(=O)OC21c2ccc(O)cc2Oc2cc(O)ccc21)[C@@H](C)O)C(C)C)C(=O)N[C@@H](CC(=O)O)C(=O)N[C@@H](CCC(N)=O)C(=O)N[C@H](C(=O)N[C@@H](CC(N)=O)C(N)=O)C(C)C` [3b] ({FITC-Ahx}-QLTSYDCEVNA[PEG12]EELLRALDQVN-NH2) came in with a Kd in assay [1] above 200 µM.

For `CC(C)C[C@H](NC(=O)[C@H](C)NC(=O)[C@H](CCCNC(=N)N)NC(=O)[C@H](CC(C)C)NC(=O)[C@H](CC(C)C)NC(=O)[C@H](CCC(=O)O)NC(=O)[C@H](CCC(=O)O)NC(=O)CCOCCOCCOCCOCCOCCOCCOCCOCCNC(=O)[C@H](C)NC(=O)[C@H](CC(N)=O)NC(=O)[C@@H](NC(=O)[C@H](CCC(=O)O)NC(=O)[C@H](CS)NC(=O)[C@H](CC(=O)O)NC(=O)[C@H](Cc1ccc(O)cc1)NC(=O)[C@H](CO)NC(=O)[C@@H](NC(=O)[C@H](CC(C)C)NC(=O)[C@H](CCC(N)=O)NC(=O)CCCCCNC(=S)Nc1ccc2c(c1)C(=O)OC21c2ccc(O)cc2Oc2cc(O)ccc21)[C@@H](C)O)C(C)C)C(=O)N[C@@H](CC(=O)O)C(=O)N[C@@H](CCC(N)=O)C(=O)N[C@H](C(=O)N[C@@H](CC(N)=O)C(N)=O)C(C)C` [3a] ({FITC-Ahx}-QLTSYDCEVNA[PEG8]EELLRALDQVN-NH2), the Kd in assay [1] was above 200 µM.

With “FITC-HIF-1α794–826: FITC-labelled HIF-1α794–826 peptide ({FITC}-QLTSYDCEVNAPIQGSRNLLQGEELLRALDQVN; UniProt Q16665 794-826, looked up, fragment)”, the Kd in assay [6] is 6.74 ± 0.54 µM.

For the compound “HIF-1α794-815 794-815 (from UniProt Q16665)”, the IC50 in assay [4] is above 500 µM.

Turning to p300 (from UniProt Q09472), the Kd in assay [7] was 6.74 µM.

In the case of “Ac-LGQSMDESGLPQLTSYDCEVNAPIQGSRNLLQGEELLRALDQVN-NH2 [HIF-1α782–826, 42 residue HIF-1α C-TAD peptide]”, the IC50 in assay [2] is 0.59 µM.
